Test: yeast display, Sf9 membrane polyspecificity reagent, FACS + sequencing; frameworks hold sequencing errors
How it was run: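 Sorting gates, low and high (top ~1%), were placed on anti-HA fluorescence to track expression and on streptavidin fluorescence to track reagent binding. A clone's polyreactivity label is taken from the gate it came out of. The reagent was 10% biotinylated, detergent-solubilized Sf9 membrane, applied for 1 hour at 4 °C to galactose-induced yeast display cells.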

Row | Sequence | polyreactivity (PSR sort gate)
1 | QVQLVESGGGLVQAGGSLRLSCAASGFTFGINAMGWSRQAPGKERELVASISSGSSTTYADSVKGRFTISRDNAKNTVYLQMNRLKPEDTAVYYCNARPFHIYWRYDYWGQGTQVTVSS | low polyreactivity
2 | QVQLVESGGGLVQAGGSLRLSCAASGFTFGNYAMGWYRQAPGKERELVAVISYSTGSTYYADSVKGRFTISRDNAKNTVYLQMNSLKPEDTAVYYCAKRYRSYYQGYGYWGQGTQVTVSS | high polyreactivity
3 | QVQLVESGGGLVQAGGSLRLSCAASGFTFGPNTMGWYRPAPGKERELVAAISARGGRTYYADSVKGRFTISRDNAKNTVYLQMNSLKPEDTAVYYCAAPGYVRTGVTYGGYYWGQGTQVTVSS | high polyreactivity
4 | QVQLVESGGGLVQAGGSLRLSCAASGFTFGQYAMGWYRQAPVKERELVAAITGSGGRTYYADSVKGRITISRDTAKNTVYLQMNSLKPEDTGVYYCNARVPLRQYSNYYWGQGTQVTVSS | high polyreactivity
5 | QVQLVESGGGLVQAGGSLRLSCAASGFTFGRNAMGWYRQAHGKERELVASIDWSGGSTYYADSVKGRFTISRDNAKNTFYLQMNTLKPEDTAVYYCAVGPNSVGNRSYGFDYWGQGTQVTLSS | low polyreactivity
6 | QVQLVESGGGLVQAGGSLRLSCAASGFTFGRYAMGWYRPAPGKERELVAAISRSGGRTYYADTVKGRFTISRDNAKNTVYLQMNSLKPEHTAVYYCAAYGGVEDDYWGQGTQVTVSS | low polyreactivity
7 | QVQLVESGGGLVQAGGSLRLSCAASGFTFGRYAMGWYRQAPGKERELVAAITSRGGSTYYADSVKGRFTISRDNAKNTVYLQMNSLKPEDTAVYYCNRDLVDSYGYWGQGTQVTVSS | high polyreactivity
8 | QVQLVESGGGLVQAGGSLRLSCAASGFTFGSNTMGWYRQAPGKERELVAAITTSGDSTYYADSVKGRFTISRDNAKNTVYLQMNCLKPEDTAVYYCAAERRYGRYYRLVRLLGQGTQVTVSS | high polyreactivity
9 | QVQLVESGGGLVQAGGSLRLSCAASGFTFGSYVMGWYRQAPGKERELVADISIRGGSTYYADSVKGRFTISRDNAKNTVYLQMHSLKPEDTAVYDCNADPAFYYWEGIVGGADYDYWGQGTQVTVSS | low polyreactivity
10 | QVQLVESGGGLVQAGGSLRLSCAASGFTFGTYTMGWYRQAPGKERELVAAISGSGGSTYYADSVKGRFTISRDNAKNTDYLQMNSLKPEDTAVYYCAAVGRSKRDGYWGQGTQVTVST | high polyreactivity
11 | QVQLVESGGGLVQAGGSLRLSCAASGFTFGWYAMGWYRPAPGKERELVAAISRSGGSTYYADSVKGRFTISRDTAKNTVYLQMNSLKPEDTAVYYCAATYPQGKYTYGRSYDYWGQGTQVTVSS | high polyreactivity
12 | QVQLVESGGGLVQAGGSLRLSCAASGFTFGWYAMGWYRQAPGKEREFVAAISQTGGSTYYADSVKGRFTISRDNAKNTVYLQMNSLKPEDTAVYYCAAPGKRRGVYYWGQGTQVTVSS | high polyreactivity
13 | QVQLVESGGGLVQAGGSLRLSCAASGFTFGWYAMGWYRQAPGKERELVAAIRSDGSTYYADSVKGRFTISRDNAKNTVYLQMNSLKPEDTAVDYCAAVYYQRGWEFDYWGQGTQVTVSS | low polyreactivity
14 | QVQLVESGGGLVQAGGSLRLSCAASGFTFGWYAMGWYRQAPGKERELVADITYNDASTYYADSVKGRFTISRDNAKNTVYLQMNSLKPEDTAVYYCNAVHRRYLVTHPYDYWGQGTQVTVSS | low polyreactivity
15 | QVQLVESGGGLVQAGGSLRLSCAASGFTFGYNAMGRYRQAPGKERELVAAITSGGSTNYADSVKGRFTISRDNAKNTVYLQMNSLKPEDNAVYYCATGVRPWRKKPVEFYHWGQGTQVTVSS | low polyreactivity
16 | QVQLVESGGGLVQAGGSLRLSCAASGFTFGYNDMGWYRQAPGKERELVAGIRSGDDTNYADSVKGRFTISRDNAKNTVYLQMYSLKPEDTAVYYCAADRTTYTYYLPYDYWGQGTQVTVSS | low polyreactivity
17 | QVQLVESGGGLVQAGGSLRLSCAASGFTFGYYAMGWSRQAPGKESELLATITSSGASTYADSVKGRFTISRDNAKNTVYLQMNSLKPEDTAVYYCAADRLPSYWSWYGYDYWGQGTQVTVSS | high polyreactivity
18 | QVQLVESGGGLVQAGGSLRLSCAASGFTFGYYAMGWYRPAPGKERELVAGISSSGSRTYYADSVKGRFTISRDNAKNTVYLQMNSLKPEDTAVYYCNKYYSGKSYTGEDYWGQGTQVTVSS | high polyreactivity
19 | QVQLVESGGGLVQAGGSLRLSCAASGFTFGYYAMGWYRQAPGKERELVAAISASGASTYYADSVKGRFTISRDNAKNTVYLQMNSLKPEDTAVYYCAARPGQLTSPVTRTRYNYWGQGTQVTVSS | low polyreactivity
20 | QVQLVESGGGLVQAGGSLRLSCAASGFTFGYYAMGWYRQAPGKERELVAAITWSGGRTYYADSVKGRFTISRDNAKNTVYLQMNSLKPEDTAVYYGAVETLWQGSEYWGQGTQVTVSS | low polyreactivity

Row | Sequence | polyreactivity (PSR sort gate)
21 | QVQLVESGGGLVQAGGSLRLSCAASGFTFGYYAMGWYRQAPGKERELVAAITYDGDITYYADSVKGRFTISRDNAKNTVYLQMNSLKPEDTAVYYCAADTVYRSYYWGQGTQVTVSS | low polyreactivity
22 | QVQLVESGGGLVQAGGSLRLSCAASGFTFGYYAMGWYRQAPGKERELVAGITTDGSTNYADSVKGRFTISRDNAKNTVYLQMNSLKPEDTAVYYCAADDLHWLNSKRYRGRDYWGQGTQVTVSS | low polyreactivity
23 | QVQLVESGGGLVQAGGSLRLSCAASGFTFGYYAMGWYRQAPGKERELVATIDRGGGTSYADSVKGRFTISRDNAKNTVYLQMNSLKPEDTAVYYCAAVRQGYVAYYYWGQGTQVTVSS | high polyreactivity
24 | QVQLVESGGGLVQAGGSLRLSCAASGFTFGYYAMGWYRQARGKERELVAAISSRGSGTYYADSVKGRFTISRDNAKNTVYLQMNSLKPEDTAVYYCARPAALLGYWGQGTQVTVSS | low polyreactivity
25 | QVQLVESGGGLVQAGGSLRLSCAASGFTFHKNAMGWYRQAPGKERELVAAISRSGGRTYYADSVKGRFTISRDNAKNTVYLQMNSLKPEDTAVYYCNATPLLWAGYDYWGQGTQVTVSS | high polyreactivity
26 | QVQLVESGGGLVQAGGSLRLSCAASGFTFHVNTMGWYRQAPGKERELVAAISRSGGSTYYADSVKGRFTISRDNAKNTVYLQMNSLKPEDTAVYYCATPSPGYTYDPRTQEENDYWGQGTQVTVSS | low polyreactivity
27 | QVQLVESGGGLVQAGGSLRLSCAASGFTFHWYAMGWYRQAPGKERELVAAISWSGGSTYYADSVKGRFTISRDNAKNTVYLQMNSLKPEYTAVYYCNAGVYWPGEFDYWGQGTQVTVSS | high polyreactivity
28 | QVQLVESGGGLVQAGGSLRLSCAASGFTFHWYAMGWYRQAPGKERELVAAITDTGGSTYYADSVKGRFTISRDNAKNTVYLQMNSLKPEDTAVYYCATRHSKYGYEYDYWGQGTQVTVSS | low polyreactivity
29 | QVQLVESGGGLVQAGGSLRLSCAASGFTFHYYTMGWYRQAPGKDRELVATIRWSAGSTYYADSVKGRFTISRDNAKNTVYLQMNSLKPEDTAVYYCAVRSLRVDKYGYWGQGTQVTVSS | high polyreactivity
30 | QVQLVESGGGLVQAGGSLRLSCAASGFTFIAYAKGWYRQAPGKERELVAAISRRGGSTYYADSVKGRFTISRDNAKNTVYLQMNSLKPEDTAVYYCAKESRKKTDYDYWGQGTQVTVSS | high polyreactivity
31 | QVQLVESGGGLVQAGGSLRLSCAASGFTFIGYAMGWYRQAPGKERELVAAITWRGGRTYYADSVKGRFTISRDNAKNTVYLQMNSLKPEDTAVYYCAADGYTVVNSYYWGQGTQVTVSS | high polyreactivity
32 | QVQLVESGGGLVQAGGSLRLSCAASGFTFIKYAMGWYRQAPGKEREFVAAITRSGTSTYYADSVKGRFTISRDNAKNTVYLQMNSLKPEDTAVYYCAARYVYNSDRVSERDYWGQGTQVTVSS | high polyreactivity
33 | QVQLVESGGGLVQAGGSLRLSCAASGFTFIKYAMGWYRQAPGKEREFVPTISWNGGNTYYADSVKGRFTISRYNAKNTVYLQMNSLKPEDTAVYYCAARVKYRTRGGTVVSYDYWGQGTQVTVSS | high polyreactivity
34 | QVQLVESGGGLVQAGGSLRLSCAASGFTFILYTMGWYRQAPGKERELVAAITWRGGNTYYADSVKGRFTISRDNAKNTVYLQMNSLKPEDSAVYYCAAETYYASWEMDYWGQGTQVTVSS | high polyreactivity
35 | QVQLVESGGGLVQAGGSLRLSCAASGFTFIRYAMGWYRQAPGKERELVAAIRGTGTSTYYADSVKGRFTISRDNAKNTVYLQMNSLKPEDTAVYYCNKVSGRSPYTRYDYWGQGTQVTVSS | low polyreactivity
36 | QVQLVESGGGLVQAGGSLRLSCAASGFTFISNAMGWYRQAPGKERELVAAISSSGGRTYYADSVKGRFTISRDNAKNTVYLQMNSLKPEDTAVYYCNADRSLLYSRKIEYDYWGQGTQVSVSS | low polyreactivity
37 | QVQLVESGGGLVQAGGSLRLSCAASGFTFKFYAMGWYRQAPGKERELVAAISGSGDSTYADSVKGRFTISRDNAKNTVYLQINSLKPEDTAVYYFNGRYAGVPWWGYYSRFDYWGQVTQVTVSS | low polyreactivity
38 | QVQLVESGGGLVQAGGSLRLSCAASGFTFKKYAMGWYRQAPGKERELVAAISSSGGRTTYADSVKGRFTISRDNAKNTVYLQMNSLKPEDTAVYYCNADRYTAVRAYDYWGQGTQVTVSS | low polyreactivity
39 | QVQLVESGGGLVQAGGSLRLSCAASGFTFKRYAMGWYRQAPGKERELVAAITGSGGSTYYADSVKGRFTISRDNAKNTVYLQMNSLKPEDTAVYYCAKKRIYWSGRPTIGTYIMGYWGQGTQVTVSS | high polyreactivity
40 | QVQLVESGGGLVQAGGSLRLSCAASGFTFKSYAMGWYRQAPGKEREFVASISRRGGSTYYADSVKGRFTISRDNAKNTVYLQMNSLKPEDTAVYYCATDRPNWVFVDYNYWGQGTQVTVSS | high polyreactivity

— the nanobody polyreactivity screen of Harvey et al. (2022)
